These results are taken from patent US9289507B2, “Carriers for improved drug delivery” (Extend Biosciences, Inc., priority 2012, dated 2016).

Where two headings read alike, the source gives them in different places.

On the set-up of data set [1]: species or system Sprague Dawley rats. The following applies: rat, in vivo, sc, 1 mg/kg. The method, then: Infliximab, sold as a lyophilized powder with the appropriate salts (Hannah Pharmaceuticals), was resuspended to a concentration of 10 mg/mL with water. The Vitamin D3-PEG-NHS carrier was resuspended at a concentration of 10 mg/mL in DMSO. The Vitamin D3-PEG-NHS carrier and the infliximab were then mixed at a molar ratio of 5:1 and 10:1 carrier to infliximab. […] By using an NHS version of the carrier, more than one carrier can be attached to a therapeutic protein and this can be experimentally controlled by altering the molar ratio of carrier to target therapeutic in the reaction. In this example, a target distribution of 2-4 carriers was set as a desired parameter.
The dose was 1 mg/kg in all test groups with three rats per group. Serum samples were collected pre-dosing and at various times from 5 min to 48 hrs post injection. Serum samples were then analyzed by ELISA using an ELISA kit specific for determining the levels of infliximab in serum (Promonitor™, Progenika™). Pharmacokinetic parameters were determined using WinNonLin.

The conditions of data set [2]: 1 mg/kg, cited from earlier work.
For data set [3] the following is noted: FGF21 in its natural state; cited from earlier work.

As for “infliximab: Monoclonal antibody that binds tumor necrosis factor alpha (TNF-α) [reference compound]”, in data set [1], the “serum concentration at 24 hr” value was 2100 ng/mL and the “serum concentration at 48 hr” value is listed as 4800 ng/mL.

B1: FGF21: Fibroblast growth factor 21 in its natural state (SEQ ID:2), literature values (protein, listed as Homo sapiens)
chain: HPIPDSSPLLQFGGQVRQRYLYTDDAQQTEAHLEIREDGTVGGAADQSPESLLQLKALKPGVIQILGVKTSRFLCQRPDGALYGSLHFDPEACSFRELLLEDGYNVYQSEAHGLPLHLPGNKSPHRDPAPRGPARFLPLPGLPPALPEPPGILAPQPPDVGSSDPLSMVGPSQGRSPSYAS
With B1, the Cmax (usually the highest concentration seen after dosing) in data set [2] (intravenous route) is 1890 nM; in data set [2] (subcutaneous route) it was 73 nM. In data set [3], the half-life in serum was 1.1 h.
